# From patent US9279017B2
# B1: half-human SCA B32oN-45 (scFv)
# scFv: ELQLVEQSGAALVKPGDSVKMSCKASGYPFTDYIVHWVKQSHGKSLDWIGYINPYSGDTKFNEKFKSKATLTVDKSSSTAYMEFSRLTSEDSAIYYCARSGLIAVYFDYWGQGTTVTVSSGGGGSGGGGSGGGGSELVMTQSPSSVSASVGDRVTIACRASQNIRNILNWYQQRPGKAPQLLIYAASNLQSGVPSRFSGSGSGTDFTLTINSLQPEDFATYYCQQSYSMPRTFGGGTKVEIKTGDYKDDDDK
# Legend:
# [1] = target: recombinant human GM-CSF (rhGM-CSF) (human) (UniProt P04141); assay: SPR (BIAcore), rhGM-CSF immobilised, analyte 1040 nM
# [2] = target: recombinant human GM-CSF (rhGM-CSF) (human) (UniProt P04141); assay: SPR (BIAcore), kinetic analysis, rhGM-CSF immobilised
# [3] = target: recombinant human GM-CSF (rhGM-CSF) (human) (UniProt P04141); assay: SPR (BIAcore), rhGM-CSF immobilised, analyte 38.5 nM
# [4] = target: recombinant human GM-CSF (rhGM-CSF) (human) (UniProt P04141)
# [5] = target: recombinant human GM-CSF (rhGM-CSF) (human) (UniProt P04141); assay: SPR (BIAcore), rhGM-CSF immobilised, analyte 3120 nM
# [6] = target: recombinant human GM-CSF (rhGM-CSF) (human) (UniProt P04141); assay: SPR (BIAcore), rhGM-CSF immobilised, analyte 116 nM
# [7] = target: recombinant human GM-CSF (rhGM-CSF) (human) (UniProt P04141); assay: SPR (BIAcore), rhGM-CSF immobilised, analyte 12.8 nM
# [8] = target: recombinant human GM-CSF (rhGM-CSF) (human) (UniProt P04141); assay: SPR (BIAcore), rhGM-CSF immobilised, analyte 347 nM
binder,measurement,setting,value
B1,Ka,[1],1.89e+07 M⁻¹
same,Kd,[1],52.8 nM
same,koff,[1],0.0046 s⁻¹
same,kon,[1],87100 M⁻¹ s⁻¹
same,Kd,[2],50 nM
same,Ka,[3],2.2e+08 M⁻¹
same,Kd,[3],4.55 nM
same,koff,[3],0.00444 s⁻¹
same,kon,[3],975000 M⁻¹ s⁻¹
same,inhibition of rhGM-CSF dependent proliferation of TF-1 cells,[4],6 nM
same,Ka,[5],1.06e+07 M⁻¹
same,Kd,[5],94.6 nM
same,koff,[5],0.00514 s⁻¹
same,kon,[5],54300 M⁻¹ s⁻¹
same,Ka,[6],1.66e+08 M⁻¹
same,Kd,[6],6.01 nM
same,koff,[6],0.00464 s⁻¹
same,kon,[6],772000 M⁻¹ s⁻¹
same,Ka,[7],3.25e+08 M⁻¹
same,Kd,[7],3.07 nM
same,koff,[7],0.00384 s⁻¹
same,kon,[7],1.25e+06 M⁻¹ s⁻¹
same,Ka,[8],9.22e+07 M⁻¹
same,Kd,[8],10.8 nM
same,koff,[8],0.00477 s⁻¹
same,kon,[8],440000 M⁻¹ s⁻¹
